Results: US20210188972A1 (A AND G PHARMACEUTICAL, published 2021)

T1: Human PTGFRN-ECD (extracellular domain; amino-acid 26 to amino-acid Y at 832), His-tag protein (human, UniProt Q9P2B2 26-832)
T1 construct: range 26-832; Expressed in Hek-293 cells, purified on a nickel column; also called recombinant PTGFRN; not shown: His-tag
T1 sequence (looked up): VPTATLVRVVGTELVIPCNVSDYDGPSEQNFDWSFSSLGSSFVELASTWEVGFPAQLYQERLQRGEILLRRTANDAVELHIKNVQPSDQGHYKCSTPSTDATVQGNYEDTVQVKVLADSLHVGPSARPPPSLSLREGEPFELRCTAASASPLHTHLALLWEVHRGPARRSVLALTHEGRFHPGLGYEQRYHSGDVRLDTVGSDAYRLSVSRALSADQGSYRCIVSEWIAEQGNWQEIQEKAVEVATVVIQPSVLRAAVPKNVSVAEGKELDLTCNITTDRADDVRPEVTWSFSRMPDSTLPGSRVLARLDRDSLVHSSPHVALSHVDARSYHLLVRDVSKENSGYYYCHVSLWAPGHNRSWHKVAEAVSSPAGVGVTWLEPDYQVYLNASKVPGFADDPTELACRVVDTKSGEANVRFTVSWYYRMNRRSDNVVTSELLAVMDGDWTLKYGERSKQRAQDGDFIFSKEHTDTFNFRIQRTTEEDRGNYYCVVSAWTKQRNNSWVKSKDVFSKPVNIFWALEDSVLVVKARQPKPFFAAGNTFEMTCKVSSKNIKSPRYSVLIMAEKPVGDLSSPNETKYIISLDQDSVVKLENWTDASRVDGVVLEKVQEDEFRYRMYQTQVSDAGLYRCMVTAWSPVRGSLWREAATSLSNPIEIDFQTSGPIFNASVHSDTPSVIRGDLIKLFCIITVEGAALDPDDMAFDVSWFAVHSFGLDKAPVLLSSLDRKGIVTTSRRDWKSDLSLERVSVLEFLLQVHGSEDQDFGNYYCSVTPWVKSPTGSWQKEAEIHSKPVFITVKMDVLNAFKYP


Assays:
[1] = target: T1, Human PTGFRN-ECD (extracellular domain; …); test: BLI, Octet Red96, mAb on AMC sensor, PTGFRN-ECD 100 nM as analyte
Experimental: Antibody scouting/affinity based antibody ranking was performed to determine on/off rates and KD ranking of selected anti-PTGFRN mAbs using AMC sensor on forteBio Octet Red96 (FortéBio, Menlo Park, Calif.). PTGFRN-ECD, 100 nM, was used as the analyte.

[2] = target: T1, Human PTGFRN-ECD (extracellular domain; …); test: Octet Red96 pairing (binning matrix) on PTGFRN-ECD; capture Ab (1st loading Ab): 6F6
[3] = target: T1, Human PTGFRN-ECD (extracellular domain; …); test: Octet Red96 pairing (binning matrix) on PTGFRN-ECD; capture Ab (1st loading Ab): 9D8
[4] = target: T1, Human PTGFRN-ECD (extracellular domain; …); test: Octet Red96 pairing (binning matrix) on PTGFRN-ECD; capture Ab (1st loading Ab): 10E6
[5] = target: T1, Human PTGFRN-ECD (extracellular domain; …); test: Octet Red96 pairing (binning matrix) on PTGFRN-ECD; capture Ab (1st loading Ab): 33B7
[6] = target: T1, Human PTGFRN-ECD (extracellular domain; …); test: Octet Red96 pairing (binning matrix) on PTGFRN-ECD; capture Ab (1st loading Ab): 9G8
[7] = target: T1, Human PTGFRN-ECD (extracellular domain; …); test: Octet Red96 pairing (binning matrix) on PTGFRN-ECD; capture Ab (1st loading Ab): 1E2
[8] = target: T1, Human PTGFRN-ECD (extracellular domain; …); test: Octet Red96 pairing (binning matrix) on PTGFRN-ECD; capture Ab (1st loading Ab): 7B4
[9] = target: T1, Human PTGFRN-ECD (extracellular domain; …); test: Octet Red96 pairing (binning matrix) on PTGFRN-ECD; capture Ab (1st loading Ab): 9A9
[10] = target: T1, Human PTGFRN-ECD (extracellular domain; …); test: Octet Red96 pairing (binning matrix) on PTGFRN-ECD; capture Ab (1st loading Ab): 2B12
[11] = target: T1, Human PTGFRN-ECD (extracellular domain; …); test: Octet Red96 pairing (binning matrix) on PTGFRN-ECD; capture Ab (1st loading Ab): 10D9
[12] = target: T1, Human PTGFRN-ECD (extracellular domain; …); test: Octet Red96 pairing (binning matrix) on PTGFRN-ECD; capture Ab (1st loading Ab): 4F4

| Binder | Kd [1] [pM] | Response [1] | koff [1] [s⁻¹] | kon [1] [M⁻¹ s⁻¹] | Octet pairing response [2] | Octet pairing response [3] | Octet pairing response [4] | Octet pairing response [5] | Octet pairing response [6] | Octet pairing response [7] | Octet pairing response [8] | Octet pairing response [9] | Octet pairing response [10] | Octet pairing response [11] | Octet pairing response [12] |
| --- | --- | --- | --- | --- | --- | --- | --- | --- | --- | --- | --- | --- | --- | --- | --- |
| 10D9 (antibody, V domains shown, Mouse hybridoma mAb) VH: DVQLQESGPGLVKPSQSLSLTCSVTGCSITSGYDWNWIRQFPGNKLEWMGYINYDGNSNYIPSLKNRVSITRDTSKNQFFLKLNSVTTEDTATYYCARSDGYYWYFDVWGTGTTVTVSS VL: DIKMTQSPSSMYASLGERVTITCKASQDIKSYLSWYQQKPWKSPKTLIYYATSLADGVPSRFSASGSGQDYSLTISSLESDDTATYYCLQHAERPLTFGAGTKLELK | < 1 | 0.342 | < 1e-07 | 85600 | 0.215 | 0.186 | 0.329 | 0.236 | 0.142 | 0.269 | 0.1 | 0.226 | 0.18 | – | – |
| 9A9 (antibody, V domains shown, Mouse hybridoma mAb) VH: QVQLQQSGPELVKPGASVKLSCKASGYTFTTYDINWVKQRPGQGLEWIGWLYPRDGNTNYNEKFKGKASLTVDTSSSTAYMELHSLTSEDSAVYFCARDYYGSTYGYFDYWGQGTTLTVSS VL: DIQMTQSPASLSASVGGTVTITCRASEKIYSYLAWYQQKQGKSPQLLVYDANTLAQGVPSRFSGSGSGTQFSLKINSLQPEDFGSYYCQHHYVTPLTFGAGTKLALK | < 1 | 0.319 | < 1e-07 | 151000 | – | – | – | – | – | – | 0.162 | – | – | – | – |
| 2B12 (antibody, V domains shown, Mouse hybridoma mAb) VH: QVQLQQPGAELVKPGASVKMSCKASGYTFTSYWITWVKQGPGQGLEWIGDIYPGSGNTNYNEKFKSKATLTVDTSSSTAYMQLSSLTSEDSAVYYCARFFILTSYYFDYWGQGTTLTVSS VL: GIVMTQSQKFMSTTVGDRVSITCKASQNVGTAVAWFQQKPGQSPKLLIYLASNRYTGVPDRFTGSGSGTDFTLTISNMQSEDLADYFCQQYSNYPLTFGAGTKLELK | < 1 | 0.272 | < 1e-07 | 48500 | 0.13 | 0.0857 | 0.157 | 0.132 | 0.0926 | 0.27 | 0.0818 | 0.0744 | – | 0.111 | – |
| 33B7 (antibody, V domains shown, Murine hybridoma monoclonal IgG (ATCC PTA-124281); also called AG02; AGO2) VH: DVQLQESGPGLVKPSQSLSLTCSVTGCSITSGYYWNWIRQFPGNKLEWMGYISHDGNNNYSPSLKNRISITRDTSKNQFFLKLNSVTTEDTATYYCARGFYYYGYFGYWGQGTTLTVSS VL: DIVMSQSPSSLAVSVGEKVTMSCKSSQSLLYSTNQKNYLAWYQQKPGQSPKPLIYWASTRESGVPDRFTGSGSGTDFTLTISSVKAEDLAVYYCQQYYSYRTFGGGTKLEIKR | 3090 | 0.245 | 0.000602 | 195000 | – | – | – | – | – | – | – | – | – | – | 0.125 |
| 6F6 (antibody, V domains shown, Mouse hybridoma mAb) VH: QVQLQQSGAELVKPGASVKVSCKASGYTFTTYWMHWVKQRPGQGLEWIGRIHPSDSDTNYNQKFKGKATLTLDKSSSTAYMQLSSLTSEDSAVYYCAMSLYYTMDYWGQGTSVTVSS VL: DIQMTQSPSSLSASLGGKVTITCKASQDIKKYIAWYQHKPGKGPRLLIHYTSTLQPGIPSRFSGSGSGRDYSFSISNLEPEDIATYYCLQYDNLLYTFGGGTKLEIK | < 1 | 0.335 | < 1e-07 | 69100 | – | 0.165 | 0.255 | 0.126 | 0.146 | 0.232 | 0.103 | 0.222 | 0.124 | 0.191 | 0.131 |
| 1E2 (antibody, V domains shown, Mouse hybridoma mAb) VH: DVQLQESGPGLVKPSQSLSLTCSVTDYSITSGYYWNWIRQFPGNKLEWMGYISYDGSNNYNPSLKNRLSITRDTSKNQFFLKLNSVTPEDTATYYCARGWDYCFDYWGQGATLTVSS VL: DIQMTQTTSSLSASLGDRVTISCSASQGISNYLNWYQQKPDGTVKLLIYYTSGLHSGVPSRFSGSGSGTDYSLTISNLEPEDIATYYCQQYSQLPWTFGGGTKLEIK | < 1 | 0.41 | < 1e-07 | 63800 | – | 0.184 | 0.306 | 0.185 | 0.215 | – | 0.157 | 0.27 | 0.23 | 0.24 | – |
| 3E10 (antibody, V domains shown) VH: EVHLVESGGDLVKPGGSLKLSCAASGFTFSSYGMSWVRQTPDKRLEWVASISSGGSHTYYPDRVKGRFTISRDNAKNTLYLQMSSLKSEDTAMYYCARHPSYYGSSLYCFDYWGQGTTLTVSS VL: DIQMTQTTSSLSASLGDRVTISCRASQDISNYLNWYQQKPDGTVKLLIYYTSRLHSGVPSRFSGSGSGTDFSLTISNLEQEDVATYFCQQGSTLPWTFGGGTKLEIK | < 1 | 0.472 | < 1e-07 | 120000 | 0.0759 | 0.199 | 0.305 | 0.252 | 0.124 | – | 0.12 | 0.224 | 0.251 | 0.219 | 0.112 |
